Measured values: patent US20180291110A1 (Hoffmann-La Roche, published 2018)

T1: cynomolgus transferrin receptor (recombinant, for surface plasmon resonance) (cynomolgus)
T1 chain: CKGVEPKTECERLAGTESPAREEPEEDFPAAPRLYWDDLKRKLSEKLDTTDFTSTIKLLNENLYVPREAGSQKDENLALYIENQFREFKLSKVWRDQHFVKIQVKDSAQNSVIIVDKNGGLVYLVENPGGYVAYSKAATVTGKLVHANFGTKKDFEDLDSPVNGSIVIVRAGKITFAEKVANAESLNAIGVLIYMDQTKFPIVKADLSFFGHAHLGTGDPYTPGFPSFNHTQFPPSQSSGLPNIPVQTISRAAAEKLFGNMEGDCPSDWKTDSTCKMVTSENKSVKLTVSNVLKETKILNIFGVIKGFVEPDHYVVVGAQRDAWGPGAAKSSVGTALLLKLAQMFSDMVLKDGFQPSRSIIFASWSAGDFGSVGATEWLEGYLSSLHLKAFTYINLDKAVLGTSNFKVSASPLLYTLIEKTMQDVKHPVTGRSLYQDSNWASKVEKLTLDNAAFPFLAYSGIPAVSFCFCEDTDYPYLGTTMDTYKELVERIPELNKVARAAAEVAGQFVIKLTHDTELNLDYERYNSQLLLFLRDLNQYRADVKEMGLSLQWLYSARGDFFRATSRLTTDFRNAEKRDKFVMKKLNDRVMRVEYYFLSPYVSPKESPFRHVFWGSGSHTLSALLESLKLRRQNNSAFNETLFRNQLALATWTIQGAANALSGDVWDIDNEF

B1: Rabbit anti-transferrin antibody clone 2/99 (antibody, V domains shown)
VH: QSMEESGGRLVTPGTPLTLTCTVSGFSLSSYAMSWVRQAPGKGLEWIGYIWSGGSTDYASWAKGRFTISKTSTTVDLKITSPTTEDTATYFCARRYGTSYPDYGDANGFDPWGPGTLVTVSS
VL: AYDMTQTPASVEVAVGGTVTIKCQASQSISSYLSWYQQKPGQRPKLLIYRASTLASGVSSRFKGSGSGTQFTLTISGVECADAATYYCQQCYSSSNVDNTFGGGTEVVVKR
notes: also called antibody 2/99
B2: Trastuzumab HC x Pertuzumab (Tras.Y91H) LC (antibody, V domains shown)
VH: not shown
VL: DIQMTQSPSSLSASVGDRVTITCKASQDVSIGVAWYQQKPGKAPKLLIYSASYRYTGVPSRFSGSGSGTDFTLTISSLQPEDFATYYCQQHYIYPYTFGQGTKVEIK
notes: human IgG

How the values were obtained:
[1] = molecular target: T2, cynomolgus transferrin receptor on CHO-K1 cells (cynomolgus, UniProt H9EXL1 1-760 (rhesus entry)); experiment: FACS, cyTfR-CHO
T2 construct: whole, on cells; also called cyTfR; Cyno TfR-CHO

[2] = molecular target: T3, human transferrin receptor on CHO-K1 cells (human, UniProt P02786 1-760); experiment: FACS, hTfR-CHO
T3 construct: whole, on cells; also called hTfR-CHO

[3] = molecular target: T2, cynomolgus transferrin receptor on …; experiment: FACS, cyTfR-CHO against hTfR-CHO
[4] = molecular target: T4, human transferrin receptor (recombinant, for surface plasmon resonance) (human, UniProt P02786 89-760); experiment: BIAcore
T4 construct: also called huTfR; human transferrin receptor-biotinylated

[5] = molecular target: T1, cynomolgus transferrin receptor …; experiment: BIAcore
[6] = molecular target: T4, human transferrin receptor …; experiment: BIAcore, huTfR against cyTfR
[7] = molecular target: T5, Her2 ECD (amino acids 1 to 629 of matured HER2 with C-terminal avi-tag and His-tag) (human, UniProt P04626 23-652); experiment: SPR, antibody captured, Her2 analyte; N/A in Table 18
T5 construct: also called purified Her2

| Binder | EC50 [1] [µg/mL] | EC50 [2] [µg/mL] | ratio EC50 Cyno/human [3] | ratio max Cyno/human [3] | koff [4] [s⁻¹] | t1/2 [4] [min] | koff [5] [s⁻¹] | t1/2 [5] [min] | ratio t1/2 human/Cyno [6] | binding result [7] |
| --- | --- | --- | --- | --- | --- | --- | --- | --- | --- | --- |
| B1 | 0.241 | 0.275 | 0.9 | 1 | 0.000616 | 19 | 0.000277 | 42 | 0.4 | – |
| B2 | – | – | – | – | – | – | – | – | – | no binding (tested: 300 nM) |
